Here are results for three proteins from patent US20050142568.

Series [1] concerns the target T1, ^35S-Methionine labeled CRN-1, Q9N3T2.
T1 chain: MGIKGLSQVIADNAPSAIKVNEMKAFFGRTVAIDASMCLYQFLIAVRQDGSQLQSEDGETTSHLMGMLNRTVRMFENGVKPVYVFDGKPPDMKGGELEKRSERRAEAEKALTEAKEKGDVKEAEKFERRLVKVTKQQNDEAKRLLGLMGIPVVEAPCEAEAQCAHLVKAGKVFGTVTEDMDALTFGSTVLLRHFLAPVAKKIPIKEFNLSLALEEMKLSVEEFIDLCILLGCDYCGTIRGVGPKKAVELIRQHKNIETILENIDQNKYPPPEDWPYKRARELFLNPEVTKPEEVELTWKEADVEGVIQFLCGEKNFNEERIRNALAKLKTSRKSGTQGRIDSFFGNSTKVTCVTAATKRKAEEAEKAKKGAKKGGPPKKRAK

Another series deals with T2, His6CPS-6, Q95NM6.
T2 chain: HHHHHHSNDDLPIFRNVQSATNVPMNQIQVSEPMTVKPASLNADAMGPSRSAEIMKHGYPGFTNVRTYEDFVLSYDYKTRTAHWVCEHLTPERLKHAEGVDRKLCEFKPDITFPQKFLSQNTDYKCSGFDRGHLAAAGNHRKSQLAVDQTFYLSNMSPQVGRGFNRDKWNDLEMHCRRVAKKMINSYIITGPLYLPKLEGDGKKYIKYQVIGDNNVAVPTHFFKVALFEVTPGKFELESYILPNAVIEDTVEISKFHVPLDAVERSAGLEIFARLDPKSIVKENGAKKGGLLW

B1: full-length ^35S-methionine labeled CPS-6 (protein)
chain: MIGKVAGTAAIAGISFLAGKYSNDDLPIFRNVQSATNVPMNQIQVSEPMTVKPASLNADAMGPSRSAEIMKHGYPGFTNVRTYEDFVLSYDYKTRTAHWVCEHLTPERLKHAEGVDRKLCEFKPDITFPQKFLSQNTDYKCSGFDRGHLAAAGNHRKSQLAVDQTFYLSNMSPQVGRGFNRDKWNDLEMHCRRVAKKMINSYIITGPLYLPKLEGDGKKYIKYQVIGDNNVAVPTHFFKVALFEVTPGKFELESYILPNAVIEDTVEISKFHVPLDAVERSAGLEIFARLDPKSIVKENGAKKGGLLW
For B1, the “gap-dependent endonuclease activity of CRN-1” value in series [1] is “it enhanced the gap-dependent endonuclease activity of CRN-1 by more than 200%”.

B2: CRN-1-His6 (protein)
chain: MGIKGLSQVIADNAPSAIKVNEMKAFFGRTVAIDASMCLYQFLIAVRQDGSQLQSEDGETTSHLMGMLNRTVRMFENGVKPVYVFDGKPPDMKGGELEKRSERRAEAEKALTEAKEKGDVKEAEKFERRLVKVTKQQNDEAKRLLGLMGIPVVEAPCEAEAQCAHLVKAGKVFGTVTEDMDALTFGSTVLLRHFLAPVAKKIPIKEFNLSLALEEMKLSVEEFIDLCILLGCDYCGTIRGVGPKKAVELIRQHKNIETILENIDQNKYPPPEDWPYKRARELFLNPEVTKPEEVELTWKEADVEGVIQFLCGEKNFNEERIRNALAKLKTSRKSGTQGRIDSFFGNSTKVTCVTAATKRKAEEAEKAKKGAKKGGPPKKRAKHHHHHH
For the protein B2, the “nuclease activity (plasmid cleavage assay)” value with His6CPS-6, Q95NM6 is “complete plasmid degradation and approximately 500% increase in nuclease activity”.

B3: CRN-1(DY-AA) (protein)
chain: MGIKGLSQVIADNAPSAIKVNEMKAFFGRTVAIDASMCLYQFLIAVRQDGSQLQSEDGETTSHLMGMLNRTVRMFENGVKPVYVFDGKPPDMKGGELEKRSERRAEAEKALTEAKEKGDVKEAEKFERRLVKVTKQQNDEAKRLLGLMGIPVVEAPCEAEAQCAHLVKAGKVFGTVTEDMDALTFGSTVLLRHFLAPVAKKIPIKEFNLSLALEEMKLSVEEFIDLCILLGCAACGTIRGVGPKKAVELIRQHKNIETILENIDQNKYPPPEDWPYKRARELFLNPEVTKPEEVELTWKEADVEGVIQFLCGEKNFNEERIRNALAKLKTSRKSGTQGRIDSFFGNSTKVTCVTAATKRKAEEAEKAKKGAKKGGPPKKRAK
Turning to B3, the “CPS-6 nuclease activity (plasmid cleavage assay)” value with His6CPS-6, Q95NM6 was “continuing enhancement of CPS-6 nuclease activity, though less potently than the wild type CRN-1 protein”.
